Results: the nanobody polyreactivity screen of Harvey et al. (2022)

Test: yeast display, Sf9 membrane polyspecificity reagent, FACS + sequencing; frameworks hold sequencing errors
How it was run: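 Synthetic nanobody libraries on Saccharomyces cerevisiae BJ5465 were galactose-induced for 36–48 hours, stained 1 hour at 4 °C with 10% biotinylated, detergent-solubilized Sf9 membrane reagent and enriched on streptavidin microbeads. FACS then separated cells into low and high (top ~1%) gates by anti-HA (expression) and streptavidin (reagent binding) fluorescence. Genes were colony-PCR amplified, MiSeq 2 × 250 sequenced and CDR-length filtered. A clone's polyreactivity label is that of its gate of origin.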

Sequence	polyreactivity (PSR sort gate)
QVQLVESGGGLVQAGGSLRLSCAASGFTFYGNAMGWYRQAPGKERELVAAISSTGGSTFYADSVKGRFTISRDNAKNTVYLQMNSLKPEDTAVYYCAVRRYTKFRSTRYYYWGQGTQVTVSS	high polyreactivity
QVQLVESGGGLVQAGGSLRLSCAASGSTFRDYDMGWYRQAPGKERELVAAISLSGGRTHYADSVKGRFTISRDNAKNTVYLQMNSLKPEDTAVYYCAARNTGPVQYYYWGQGTQVTVSS	low polyreactivity
QVQLVESAGGLVQAGGSLRLSCAASGLTYYFYPMGWYRQAPGKETELVAAINYDDGSTYYADSVKGRFTISRDNAKNTVYLQMNSLKPEDTAVYYCAADRDFRTPRLYYWGQGTQVTVSS	low polyreactivity
QVQLVESGGGLVQAGGRLRLSCAASGRTFAYYAMGWSRQAPGKERELVAAITRGGSTYYADSVKGRFTISRDNAKNTVYLQMNSLKPEDTAVYYCAAATSPYQDDYWGQGTQVTVSS	low polyreactivity
QVQLVESAGGLVQAGGSLRLSCPASGRIFSIYGMGWYRQAPGKERELVAVISGSVGITYYADSVKGRFTISRDNAKNTVYLQMNSLKPEDTAVYFCNAKVRRRKYDYWGQGTQVTVSS	high polyreactivity
QVQLVESGGGLVQAGGSLRLSCAASGRIFDLYTMGWYRQAPGKERELVAAIRWSDGSTYYADSVKGRFTISRDNAKNTVYLQMNSLKPEDTAVYYCNRDPPRVLWYYLLSDSKLDSWGQGTQVTVSS	low polyreactivity
QVQLVESGGGLVQAGGSLRLSCAASGRTFRSNAMGWYRQAPGKEREFVAAISSGGSTKYADSVKGRFTISRDNAKNTVYLQMNSLKPEDTAVYYCAAVSHSRYWGEGTQVTVSS	high polyreactivity
QVQLVESGGGLVQAGGSLRLSCAASGLTFSSYAMGWYRQAPGKERELVAAITRGGRTQYADSVKGRFTISRDNAKNTVYLQMNSLKPEDTAVYYCARSGNYYYWGQGTQVTVSS	high polyreactivity
QVKLVESGGGLVKAGASLRLSCAASGSTLQHYAMGWYRQAPGKERELVAAINRSGDRTYYADSVKGRFTISRDNAKTTVYLQMNSLKPEDTPVDYCAAYDDYRAPVRYEYWGQGTQVTVSS	high polyreactivity
QVQLVESGGGLVQAGGSLRLSCAASGRTFSTNAMGWYRQAPGKERELVAAISASGGSTYYADSVKGRFTISRDNAKNTVYLQMNSLKPEDTAVYYCAAYPGQWRTGYDYWGQGTQVTVSS	high polyreactivity
QVQLVESGGGLVKEGGSLRLSCAASGSIYYENTMGWYRQAPGKERELVASISCGGSTYADSVKGRFTISRDNAKNSVYLQMYSLKAEDSAVYYCNADSSTEYDYWGQGTQVTVSS	low polyreactivity
QVHLVESGGGLVQAGGSLRLSCAASGRTLRSYAMGWYRQAPGKERELVAAINWRDTNTYYADSVKGRFTISRDNAKNTVYLQMNSLKPEDTAVYYCAARYYSRGWRYNYWGPGTQVTVSS	high polyreactivity
QVQLVESGRGIVQAGGSLRLSCAASGLSFSNYAMGWYRQAPGKERELVARITTSGGRTYYADSVKGRFTISRDNANNTEYLKMNSLKPEDTAVYYCAANNRRRPSYDYDSWGQGTQVTVSS	low polyreactivity
QVQLVESGGGLVQAGGSLRLSCAASGFIFYSNAMGWYRQAPGKERELVAGISRGGSTYYADSVKGRFTISRDNAKNTVYLQMNRLKPEDTAVYYCAAKISLGDDYWGQGTQVTVSS	low polyreactivity
QVQLVESGGGLVQAGGSLRLSCAASGRIFPTYAMGWYRQAPGKERELVAGITSGGRTNYADSVKGRFTISRDNAKNTVYLQMNSLKQEDTAVYYCDKRVWPRDQYGKRNPRMDYWGQGTQVTVSS	high polyreactivity
QVQLVESGGGLVQAGGSLRLSCAASGGTFYTNVMGWYREAPGKERELVAAITRSGGSTHYADSVKGRFTISRDNAKNTVYLQMNSLKPEDTAVYYCAVGSPYYDGMDYWGQGTQVTVSS	low polyreactivity
QVQLVESGGGLVQAGGSLRLSCAASGFTISAYAMGWYRQAPGKERELVAAITSGGGSTRYADSVKGRFTISRDNAKNTVYLQMNSLKPEDTAVYYCAARNHRYKFNYWGQGTQVTVSS	high polyreactivity
QVQLVESGGGLVQAGGSLRLSCAASGSIFYFYARGWYRLAPGKERELVAAIRFTGGTTYYADSVKGRFTISRDNAKNTVDLQMNSLKPEDTADYYCAKQTSYWSRGFDYWGQGTQVTVSS	low polyreactivity
QVQLVESGGGLVQAGGSLRLSCAASGSTFYGYGMGWYRQAPGKERELVAAITGSGDTTYYADSVKGRFTISRDNAKNTVYLQMNSLKPEDTAVYYCNARWLAEYDYWGQGTQVTVSS	low polyreactivity
QVHLVESGGGLVQAGGSLRLSCAASGRLFFYALGWYRQSPRKERELVAAISWSGGSTYYADSVKGRFTISRDNAKNTVYLQMNSLKPEDTAVYYCAADYEGWGYDYRGDYWGQGTQVTVSS	low polyreactivity
QVQLVESGGGLVQAGGSHRLSCAASGFIFSYYAKGRYRQAPGKERELVAAISSSGGTTYADSVKGRFTISRDNAKNTVYLHMNSLKPEDTAVYYCARVQYWFYKPMYYWGQGTQVTVSS	high polyreactivity
QVQLVESGGGLVQAGGSLRLSCAASGRTFTRYAMGWYRQAPGKERELVAAISWSGTSTHYADSVKGGFTISRDNATNTVYLQMNSLKPEDTAVYYCAARRYPVLKYDYWGQGTQVTVSS	high polyreactivity

Sequence	polyreactivity (PSR sort gate)
QVQLEESGGGLVQAGGSLRLSCAASGRTFGVYAMGWYRQAPGKERELVAGIRWRGGSTYYADSVKGRFTISRDNAKNTVYLQMNSLKPEDTAVYYCAADVYLVKYDYWGQGTQVTVSS	low polyreactivity
QVQLVESGGGIVQAGGSLRLSCAASGSIFSYYAMGWYRQAPGKERELVAAITSGGATTYYADSVKGRFTISRDNAKNTVYLQMNSLKPEDTAVYYCAAGYYVYYRWWELDYWGQGTQVTVSS	low polyreactivity
QVQLVESGGGLVQAGGSLRLSCAASGSILYVYALAWYRQAPGKERALVAAIYSGASTYYADSVKGRFTISPDNAKNTVYFQMNSLIPEETAVYYCAAYVFFQTYFSYYVEGDYWGQGTQVTVSS	low polyreactivity
QVHLVESGGGLVQAGGSLRLSCAASGSIFLVYAMGWYRPAPGKERELVAVISNGGRTNYADSVKGRFTISRDNAKNTVYLQMNSLKPEDTAVYYCAVRGPTDYWADPYSAGDHWGQGTQVTVSS	high polyreactivity
QVQLVETGGGLVQAGGSLRLSCAASGSIFVRKAMGWYRQAPGKERELVATISYRGASTYYADSVKGRFTISRDNAKNTVYLQLNCLKPEDTAVYYCNAPRFVGLNVYGYDYWGQGTQVTLSS	high polyreactivity
QVQLVESGGGLVQAGGSLRLSCAASVSTFQYNARGWYRQAPGKEMELVAAITSRGGSTYYADSVKGRFTISRDNAKNTVYLQMNSLKPEDTALYYCAALLSKSGRFDRAKVTAYGYWGQGTQVTVSS	low polyreactivity
QVQLVESGGGLVQAGGSLRLSCAASGSTFPRYAMGWYRQAPGKERELVAAISRSGTTTYYADSVKGRFTISRDNAKNTVYLQMNSLKPEDTAVYYCAKRHYARYDYWGQGTQVTVSS	high polyreactivity
QVQLVESGGGLVQAGGSLRLSCAASGFTFYGNAMGWYRHAPGKERELVAAIRSGGITYYADSVKGRFTISRDNAKNTVYLQMNSLKPEDTSVYYCAAYSDYYLDQWYGYWGQGTQVTVSS	low polyreactivity
QVQLVESGGGLVQAGGSLRLSCAASGFIFYLYAMGWYRQAPGKERELVASINVSGASTRYADSVKGRFTISRDNAKNTDYLQMNSLKPEDTAVYYCAAPSRYDYWGQGTQVTVSS	low polyreactivity
QVQLEESGVGLVQAGGSLRLICAASGFTFYSYAMGWYRQAPGKERELVASISWRGGSTYYADSVKGRFTISRDNAKNTVYLQMNSLKPVDTAVYYCAAQKRGSPVYRRDYWGQGTEVTVSS	high polyreactivity
QVQLVESGGGLVQAGGSLRLSCAASGSTFFFNEMGWYRQAPGKEREVVAAITGRSGSTYYADSVKGRFTISRDNANNTDYLQMNSLKPEDNAVYYCAGDYSPWRSDFDYWGQGTQVTVSS	low polyreactivity
QVQLVESGGGLVQAGGSLRLSCAASGRIFGAYAMGWYRQAPGKERELVAASSSGGSTYYADSVKGRFTISRDNAKNTVSLQMKSLNPEDTAVYYCAASSGNGYGYWGQGTQVSVSS	high polyreactivity
QVQLVESGGGLVQAGGSLRLSCAASGSSFGTYAMGWYRQAPGKERELVAAISSSVGSTYYADSVKGRFTISRDNATNTVYLQMNSLKPEDTAVYYCAVEQEDFWYPYLYDYWGQGTQVTVSS	high polyreactivity
QVQLVESGGVLVQAGGSLRLSCAASGSTFRRYAMGWYRQAPGKERELVAAITTRGGSTYYADSVKGRFTISRDNAKNTVYLQMNSLKPEDTAVYYCARDYSTYLRTAGDYWGQGTQVTVSS	low polyreactivity
QVQLVESGGGLVQAGGSLRLSCAASGRIFYTNAMGWYRPAPGKERELVAAITRSGGRTYYADSVKGRFTISRDNAKNTVYLQMNSLKPEDTGVYYCAKVGYGHTGMGYWGQGTQVTVSS	high polyreactivity
QVQLVESGGGLVQAGGSLRLSCAASGFTFRDYVMGWYTQAPGKERELVAAISRSGASTYYADSVKGRFTISRDNAKNTVYLQMNSLKPEDTAVYYCAKTQAGYSPGTYDYWGQGTQVTVSS	high polyreactivity
QVQLVESGPGLVQAGGSLRLSCAASGRIFTANAMGWYRQAPGKERELVAAITTSDGTYYADSVKGRFTISRDNAKNTVYLQMYSLKPEVTAVYYCATDTATYPPAMDDWGQGTQVTVSS	low polyreactivity
QVQLVESGGGLVQAGGSHRLSCAASGLTFDHYAMGWYRQAPGKERELVAAISRTGTRTYYADSVKERFTISRDNAKNTVYLQMNSLKPEDTAVYYCNAGTYWQGDSYDYWGQGTQVTVSS	low polyreactivity
QVQLVESGGGLVQAGGSLRLSCAASGRIFRAYTMGWYRQAPGKERELVAAITWRGGRTYYADSVKGRFTISRDNAKNTVYLQMNSLKPEDTAVYYCAAVRKYRAMDYWGQGTQVTVSS	high polyreactivity
QVQLVESGGGLVQAGGSLRLSCAASGSTFWPYAMGWFRQAPGTERELVAAITWSGGRTYYADSVKGRFTLSRDNAKNTVYLQMNSLKPEDTAVYYCAAYYRQGIAPNGFDYWGQGTQVTVSS	high polyreactivity
QVQRVESGGGIVQAGGSLRLSCAASGFIFRRYAMGWYRQAPGKERELVAAISSSGGRTTYADSVKGRFTISRDNAKNTVYLQMNSLKPEDTAVYYFNADLWPGNHDGYWGQGTQVSVSS	low polyreactivity
